This is an account of results in the DeepSol protein solubility set.

The data set is described as follows: soluble on expression in E. coli; label from the status in PepcDB or PDB records.
Regarding “MVRYWIYLLSDDVASHYRHRAEKIVELLREHQYAKAPLKAICRKQVEFITERLSFSRLELGLKQYFAGRVGKNLERNMFVLQNDAGEEALLVVQKRRLLLVADSAPLASDIGRALARLSPTFLAVDADFVDYYWLSAPRQGRKFA”, the “soluble on expression in E. coli” value was “not soluble”.

With “MRKICCLLFAVFILCISASCYQRKETRISQPVIMPAIQSPEDIDDYIGEKGYEILESKGKTEEYTLDKKRVYNNWQIWAVQYPEPDHYLGKEISIYSYIIRNHPLDDKSPNKKTYLSVMICENTIIGGYSSPYYEEKDISLVPIGGVYSLEGKNFEEIKNINFDRWRKRFIKKYE”, the “soluble on expression in E. coli” value is reported as “not soluble”.

Turning to “MAHHHHHHMCISELRSLRGHGRNVYIIYDVAKEGTPPPRHFASTSGWGMIAVSFPKVTNYDEWEKQLKAARIIMNCPDGMDVKAMCAWMERDGDTDEQTKYWKMVETHMEKVGPIPRHIFYAKGINARFGAVENALEAINSRYADDRFILPGGGLWYAKDPSQKLVRIVRIRGERGNERFRNAPICYFLGSRSANILAKAMSEKDFLLLVWGVRKTISSAYLEKFCLRALIFGRFFSAMAEELKELNSPAHDIQDTVLKANPGAHPTEICEIPGVGKIDAKQNINHRVLYIPMLRDFPLVDCFFFVESPRRTLVGLQMTTAGEHHTTTSTVRQFTEHLSKFFNGWDEFAQGLSWRDYLCAARRQHADEWLAEMWCRRPAECGRC”, the “soluble on expression in E. coli” value is given as “not soluble”.

As to “MIGSYLKIDSKPLSYQSSKAVLKHLDYNSRFQLHEQCPSLRNVLKVTPGFLNRLEFVGDCVKINGTTYQLKMTPVKLGSTTNHIQLWINGNLYAKTVSEPQNNKELAYLVCKLLRQAWEAVLYVGTLVYGNLIFPGFPKFFKFHVQHLVIGKDQDASDVLRRFGENFQNSSFKSLELFRTSSFEVPLIQSAEKLIINERMDLSALKSRRVHVEFKIDSKFLTDLIDCWLWNGAVGKTEKEAGSVFIFAMKGFREARMFVDDVKMKFEGKFYVDKR”, the “soluble on expression in E. coli” value is given as “not soluble”.

In the case of “MGSDKIHHHHHHMEQLQKRKIYDTTASNASTGILNGKSSNVLNWDDVRFSWAYPLYKNMLANFWTPFEINMSHDAKQFPTLTETEQEAFKKIIGLLAFLDSVQTDYSMRAAEYLTDSSLAALMSVLSFQEVVHNQSYSYVLSSLVPKATQDEIFEYWKHDDVLKERNEFIIDGYEKFVDNPTPKTFLESIVYDVILEGLNFYSGFAFFYNLARNQKMVSTSTMINYINRDEQLHVYLFTNIFKELLVEFPELNTEETKTFVKTTLMKAADLEKDWFRYIIGDKIPGINPEDMETYISFIANKRAVQLGMEKPYPEIKHNPMKWIRAYEDVNSGKSDFFEQKSRQYAKVSADNGFDEL”, the “soluble on expression in E. coli” value is “not soluble”.

Turning to “MSLAQQSYPNKPIRVIVPFAAGSTTDIIARAIADKMGQSMGQSLVVDNRSGASGTIGQQAVATAPADGYTLMVHSSSHTVSPSTFAKLPFDTQADFAGVTPISSLPNALVIAPAKNIRTLQALLAAARARPGSINFASAGQGSATHLNAEKFRLAARIEATNIPFKGSAEAVTEVLSGRVDYYFSPIAPVIGQIRDGQLLALAVGSPKRAAALPEVPTTAEAGVPGSEFNFWIGMMAPAKTPRAIVERLHDEVVKALATPEVKERFLKLGADAWTLRPEQFDAYIKQEIASNAQLVQAAGLQVPQEGHHHHHH”, the “soluble on expression in E. coli” value is recorded as “soluble”.

Take “MALVPVYCLCRQPYNVNHFMIECGLCQDWFHGSCVGIEEENAVDIDIYHCPDCEAVFGPSIMKNWH”: the “soluble on expression in E. coli” value is reported as “soluble”.

As for “MTSMEEMLREAANEVLQSRIPPGYVLYPNYEQYWSHEHGMFYNPDTEQFYRPEDKTVYQLNAEGSEYVLVERRKPTYWASRSYRKRAIDLLGSAEFKKFDQNEVNICEIAFGMVDKVIKGEEMEKEKEYLRSIANNKVALMQHRINKVFKGNRRRKNPHRQYVANVDESSGHVEYTLQVDDYFDWEDAYEDNSDDEFSEKDEQAVLMHQEGFDQPPCMRVMDALRRLHIITISGGYLGSDRDCEIVVSNQLLPERCAEIVYSEEAQCYSIEKLEDACILQVNGNNVKTSSPVDLCQGDSILLSGERFDVHVHNGSNTCPGCEPGLQQGDDDIAPVTTVPAKNIRGEVARRKNLKQMMKSYGIRPDDVLSEPIRKRPATGPSEMNIHRSEAPGSSSDMYGSCAAKPMPEGQRKFDLPSTSAAVAAAAAPKPLDSGNVGFKLLKSMGWSEGQGLGKEKQGHVEPVATEVKNNRKGLGANEKEPPTKSYKDQVLEKTKQRFNEKR”, the “soluble on expression in E. coli” value is “not soluble”.

Take “MSLSGLPESTLRYYEQIGIIDPIARDPSSGHRVYSDKDIESLTTIACLAATGMPLESMREYLKNRFDGPEGARRQIELLDAQSLRLAANAEALRIQQAYVSLKSLYWRAIAEGHEDEANRILEENKDVIENVKKQPGKGAIAREGHHHHHH”: the “soluble on expression in E. coli” value is given as “soluble”.

For “VILKDALLMGTKLLKSADIDTPALEAGVLLCRVLNVDRSYLYSHDDYNMTEEEYKKFTLFLEERIKGKPLQYITGHQEFMSLDFIVTPDVLIPRQDTETLVEAVLTHVKSTGLENARILDIGTGSGCIAVSLAHFLKDSRVLALDISEKALEIAETNAKRCGVWDRMFFLKGDALEGLAGIIAQSPFAKDFERKGEGFFDIIVSNPPYIPSEEIKTLHKQVKDYEPRTALDGGIDGLDFYRAITCEAAKLLSTDSLLAFEVGYNQAENVSEFMKESFSAIKVVKDLAGIDRVVMGCRKQLKD”, the “soluble on expression in E. coli” value is given as “soluble”.

Regarding “MGSDKIHHHHHHMSIAAEKISSEALFDLLEIFDNQPWMRDLHAELAELWNACETREEQHLLKFLLKKFFLLDAQKEKLALYGISKKIQEWGLNPASTWIVAAANKDEIDGSSAGLQKLKNKINPIEEWHSRFISNIPSASNKVKSGDTIILFDDFIGTGGKMIKKTAWLKRLVTKFDPRNLKFYYVSFSGMQFGLTSLAAETACTTYAHFIFTKAISEALPEQEALTLISAMKSIEERLAVRHKNKQLNDYSLGYEKSEALYCGQNDNCPNNVFPVFWWPSMKNGNNRKTLLKRAG”, the “soluble on expression in E. coli” value is recorded as “not soluble”.

Consider “ISFEINGIKITTYPPPFRIFLEIDNKQEFEKLDRIRKNVDVVVLGFPVGHYDLDEVKNKVKQLVDYGYVVGIDAESPRELKEGVRAGASFVFNLNENNFEELEEIRKEAAFVVAPFNTENRGEITIDLVKKAKQKGFDKLIADPVLSPPLRGLVSSIIGYKYVRETLQDIPILMGILNVTELIDADSIGMNALLTAIAGELGISNLLIMEKGKTRWSSWEVSQATKMISVALKENRLPKDIGIDLLVLKDKRRFRESFNADVIVNRRIEPEMDNTGFAKIFVSEDGFGVEWIGKNKITIKGKDGLSIGRELIRRVKDISKEHAVYIGYELAKAEIAYQLDKNYIQDKPLF”, for which the “soluble on expression in E. coli” value is given as “not soluble”.

Consider “MAMYEQRYNSPFLVHDDGPNAPLEHQFAISKLTFELGLLYYQKRTIPFIPLPETPLNEGPGHAVPDVILYDAVAEDTKVIIEVCQNNGQKNDLKKVIRLIEDTEYGILEGFVYNYKSREWFRYRKGDGGAATASSVSEVMGIDMGGFV”, for which the “soluble on expression in E. coli” value is recorded as “not soluble”.

With “MGIGNENKGFITASADALINWVRTGSLWPVTTGLACCAVEMMHAGAARYDLDRFGIVFRPSPRQSDVLIVAGTLCNKMAPALRQVYDQMPDPKWVISMGSCANGGGYYHYSYSVVRGCDRIVPVDIYVPGCPPTAEALVYGIIQLQNKIIRKDTIARK”, the “soluble on expression in E. coli” value is “not soluble”.

As for “GVTKEIRIPTLEECDVCHGSGAKPGTQPQTCPTCHGSGQVQMRQGFFAVQQTCPHCQGRGTLIKDPCNKCHGHGRVERS”, the “soluble on expression in E. coli” value is listed as “soluble”.

“NVKHAFVDVQLAALPKMAYAAVDFVDYRFDNKHWKSLNEICPEVGLKPYADFAVLEVPLYLNNKLDYQVWENFIKPAIATYKALGDSTNLFASTSSSDLQNDTYFALGYPLLESNIDAIHFNQTGATLTSVPVKDRIKVKNQSFWTLN”: the “soluble on expression in E. coli” value is recorded as “not soluble”.

For “SRQHTSISDYDVMILDLTDVPMLDVTVGLALENAIKDALDARCEVYLLCPNQRTREQLEKFHVIDLVPDNNMYQFRYEALNAAVAHVESDQYQRMTA”, the “soluble on expression in E. coli” value was “not soluble”.

In the case of “MVLYPLEAEVTMVTSFQDADPMGVIYHGNFFRYFEEARRVLMEKIQYGYRDMQDSGYMWPIIDTRVKYVKAIPFNHTIRITAQLTEWENRLRVDYVIYDAETNQRMCKAHTTQVAVSIEKQEMCFVSPAVFLDKVEQWHNHGLEHHHHHH”, the “soluble on expression in E. coli” value was “not soluble”.

For “MAEAIFSAIVGDVIGRVISLVVSNFNGDHSTEVKLQRICRMLIKIHSVVEEAKGRQITNHGTLEWLSELIDGAYQGRYLLDTIGCGEPDLDDKNRDEVDPKPFSLSKFNPAKRVRVAAFTVRNILSRHDIGVDEIDRVVESLQSMCGDLKEFMMLLQACQPIHRPLATNIFIEGQMFGRHVKKEMIINFLLHEDDLPRGKLGVLPILGDIGVGKTTLVQHACDDARVRSHFTTILLFNFSHTYKMEMCEPKPVLRPKHVIGDVGNSDDPLHELEQSFFNKRFLIVFEDVDIHKKNMLEELLKSLSCGKQGSKIIVTTSNKHVTTIGTVQPIKLKFLPCPEYWFFFKAHAFAGTDVQENPRLVAAGKSIAAKLNGSFFGAKIIGAILKENPDPKFWCTVLQRDIGGLSLLGDGLGYIADLVEILLPSRLSVKEVFVSKNSLSSETELARLQGLCLPCPSSAPLATHSSELSLAKATSYERVLLCKAVLPFYSLYYTAKCAVDSENCYSKFSVV”, the “soluble on expression in E. coli” value was “soluble”.

On to “MAGAMRKMAVYLGLVEDDGYDGRGFDPDDDFEPELDPEPERDHRRHEPAHQSHGAHQSQRDEEVRVVQPPAQREPMPRAASLAAESSRPARIAPVASITQERASLEKSAPVIMPKVVSEREPYRITTLHPRTYNEARTIGEHFREGTPVIMNLTEMDDTDAKRLVDFAAGLVFGLHGSIERVTQKVFLLSPANVDVTAEDKARIAEGGFFNQSLEHHHHHH”, for which the “soluble on expression in E. coli” value was “not soluble”.

Consider “MDFKTVMQELEALGKERTKKIYISNGAHEPVFGVATGAMKPIAKKIKLNQELAEELYATGNYDAMYFAGIIADPKAMSESDFDRWIDGAYFYMLSDYVVAVTLSESNIAQDVADKWIASGDELKMSAGWSCYCWLLGNRKDNAFSESKISDMLEMVKDTIHHSPERTKSAMNNFLNTVAISYVPLHEKAVEIAKEVGIVEVKRDNKKSSLLNASESIQKELDRGRLGFKRKYVRC”, for which the “soluble on expression in E. coli” value is recorded as “soluble”.

Regarding “MAHHHHHHMAVENMLGKLKQNPGDYYNSVSALFFHRPYNMMPIQAMSFLYVRGLARATSAEHKKYFEELCSKAKVEPAAVQTELDVIPDYFGMIESGQEPKDVFGATNKVAKAVRADKDFSSLLSRKMSLGSSAMANFGNLYTASLPCWIAAGLEEAYNKKQDITNHPMVMVGYGSGDASEAIPIVPVKGWEEAASKINVAAALEKPVNLTREQYEGMHNGSLKSDLAAGNRQKEFVVAHIGSRNDMAFQDIGIEYYQFVH”, the “soluble on expression in E. coli” value is “not soluble”.

Turning to “NEVRFVVFHAVDTSEKQILVRSLEEAENKFAKLTQLLPDGLLLIEDDTIISANPASARLLGLNSPHELLGEELSRLFIDENTKKVFSHRLSTLISDKPFVCLTSARCGFERKVQLHADSTAILGSESQIILIQDA”, the “soluble on expression in E. coli” value is “not soluble”.

As to “MIVIIDYDTGNTKSISKALDFIGLQNKISSDATEISQADGVILPGVGAYPEAMKELTRRGLNKTLKEIAAGGKPILGVCLGMQLLLESSNEHSFTNGLGLIPGHVEKLPEDPEFAVPHMGWNQLQIKRATPLTKQLDGEYVYYVHSYYANCPEEYIIATSGYSIEVPGMINKGNIYGAQFHPEKSGQIGLEILKGFKEVTYSCKSSQQ”, the “soluble on expression in E. coli” value is listed as “not soluble”.
